The nanobody polyreactivity screen of Harvey et al. (2022)

assay: yeast display, Sf9 membrane polyspecificity reagent, FACS + sequencing; frameworks hold sequencing errors
Method in brief: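 Nanobodies came from a synthetic yeast display library in Saccharomyces cerevisiae BJ5465, induced with galactose for 36–48 hours and stained for 1 hour at 4 °C with 10% biotinylated, detergent-solubilized Sf9 membrane reagent. Cells were enriched on streptavidin microbeads and then FACS-sorted, with low and high (top ~1%) gates set on anti-HA fluorescence for expression and streptavidin fluorescence for reagent binding. Each polyreactivity label reflects the gate a clone came from. Genes were amplified by colony PCR, sequenced by MiSeq 2 × 250 and filtered by CDR length.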

Sequence	polyreactivity (PSR sort gate)
QVQLVESGGGLVQAGGSLRLSCAASGFTFAPYALGWYRQAPGKERELVAAIRRSGGSTYYADSVKGRFTISRDNAKNTVYLQMNSLKPEDTAVYYCAASTYQNGYGYWGQGTQVTVSS	high polyreactivity
QVQLVESGGGLVQAGGSLRLSCAASGFTFARNAMGWYRQAPGKERELVASITSGGSTNYADSVKGRFTISRDNAKNTVYLQMNSVKPEDSAVYYCNALWWAPGRPGEEIYRILDYWGQGTQVTVSS	low polyreactivity
QVQLVESGGGLVQAGGSLRLSCAASGFTFARYAMGWYIQAPGKEREFVAAISLSTTSTYYADSVKGRFTISRDNAKNTVYLQMNSLKPEDTAVYYCATDIVGPHVDYWGQGTQVTVSS	low polyreactivity
QVQLVESGGGLVQAGGSLRLSCAASGFTFARYAMGWYRQAPGKERELVAAIDRSGGSTYYADSVKGRFTISRDNAKNTVFLQMNSLKPEDTAVYYCNAVSSFTSPRYDYWGQGTQVTVSS	high polyreactivity
QVQLVESGGGLVQAGGSLRLSCAASGFTFARYAMGWYRQAPGKERELVAAISSRGGRTYYADSVKGRFTISRDNAKNTVYLQMNSLKPEDTAVYYCNAGYAHTYDYWGQGTQVTVSS	high polyreactivity
QVQLVESGGGLVQAGGSLRLSCAASGFTFARYAMGWYRQAPGKERELVAAITYSGSGTYYADSVKGRFTISRDNAKNTVYLQMNSLKPEDTAVYYCYPVTRSARSYDYWGQGTQVTVSS	high polyreactivity
QVQLVESGGGLVQAGGSLRLSCAASGFTFARYAMGWYRQAPGNERELVAAITRRGGSTYYADSVKGRFTISRDNAKDTVYLQMNSLKPEDTAVYYCAADSSSGSDYWGQGTQVTVSS	high polyreactivity
QVQLVESGGGLVQAGGSLRLSCAASGFTFARYAMGWYTKAPGKERELVARISSDGGGTDYADSVKGRFTISRDNAKNTVYLQMNSLKPEDTAVYYCAARFPGYHYFKYYYWGQGTQVTVSS	low polyreactivity
QVQLVESGGGLVQAGGSLRLSCAASGFTFARYTMGWSRQAPGKEREFVAAISWSGGRTYYADSVKGRFTISRDNAKNTVYLQMNSLKPEDTAVYYCAAEYWGVYRGFVSSFDYWGQGTQVTVSS	high polyreactivity
QVQLVESGGGLVQAGGSLRLSCAASGFTFARYTMGWYRQAPGKERELVAAISSRGSSTYYADSVKGRFTISRDNAKNTVYLQMNSLKRVDTAVYYCAAPPRYGYDYWGHGTQVTVSS	high polyreactivity
QVQLVESGGGLVQAGGSLRLSCAASGFTFARYTMGWYRQEPGKERELVAAISSRGSSTYYADSVKGRFTISRDNAKNTVYLQMNSLKPEDTAVYYCAAPPRYGYDYWGQGTQVTVSS	high polyreactivity
QVQLVESGGGLVQAGGSLRLSCAASGFTFAVYVMGWSRQAPGKERELVATISFSVGSTYYADSVKRRFTISRDNAKNTVYLQMNSLKPEDTAVYYCNADPPPEYYPDKDNYWGQGTQVTVSS	low polyreactivity
QVQLVESGGGLVQAGGSLRLSCAASGFTFAWNAMGWYRQAPGKERELVATIDVSGGSTYYADSVKGRFTISRDNAKNTVYLQMNSLKPEDTAVYYCAAVELPEGGYDYWGQGTQVTVSS	low polyreactivity
QVQLVESGGGLVQAGGSLRLSCAASGFTFAWYTMGWYRQAPGKERELVAGIDWSGGSTYYADSVKGRFTISRDNAKNTVYLQMNSLKPEDTAVYYCNAAGLYYVYPGYDYWGQGTQVTVSS	high polyreactivity
QVQLVESGGGLVQAGGSLRLSCAASGFTFAYNAMGWYRQAPGKERELVAAISGRGVSTYYADSVKGRFTISRDNAKNTVYLQMNSLKPEDTAVYYCAKRYRYWTTERYDYWGQGTQVTVSS	high polyreactivity
QVQLVESGGGLVQAGGSLRLSCAASGFTFAYNAMGWYRQAPGKERELVAAISSSGGRTYYADSVKGRFTISRDNAKNTVYLQMNSLKPEDTAVYDCATRPKVAYEYDYWGQGTQVTVSS	high polyreactivity
QVQLVESGGGLVQAGGSLRLSCAASGFTFAYYAMGWYRLAPGKERELVAAINRSGGSTYYADSVKGRFTISRDNAKNTVYIEMNSLKPEDTAVYYCAAARPSLRDGVAHYYWGQGTQVTVSS	high polyreactivity
QVQLVESGGGLVQAGGSLRLSCAASGFTFAYYAMGWYRQAPGKERELVAAINWSGTRTSYADSVKGRFTISRDNAKNTVYLQMNSLKPEDSAVYYCAADSSLRYDYWGQGTQVTVSS	high polyreactivity
QVQLVESGGGLVQAGGSLRLSCAASGFTFAYYAMGWYRQAPGKERELVASISYNGGITNYADSVKGRFTISRDNAKNTVYLQMNSLKPEDTAVYYCAAGVFFFTFDYWGQGTQVTVSS	low polyreactivity
QVQLVESGGGLVQAGGSLRLSCAASGFTFAYYAMGWYRQAPGTERELVAAITYSGGSTYYADSVKGRFTISRDNAKNTVYLQMNSLKPEDTAVYYCNAYDRRYYYGRWYGEFDYWGQGTQVTVSS	low polyreactivity
QVQLVESGGGLVQAGGSLRLSCAASGFTFCKYTMGWYRQAPGKERELVAAITNSGTSTYYADSVKGRFTISRDNAKNTVYLQMNSLKPEDTAVYYCARDNEPDYYSYPYDYWGQGTQVTVSS	low polyreactivity
QVQLVESGGGLVQAGGSLRLSCAASGFTFCQYVMGWYRQAPGKERELVAAINWSGGSTYYADSVKGRFTISRDNAKNTVYLQMNSLKPEDTAVYYCNAVKAPYLRYDYWGQGTQVTVSS	high polyreactivity
QVQLVESGGGLVQAGGSLRLSCAASGFTFDDYAMGWYRQAPGKERELVATITNSDSSTYYADSVKGRFTISRDNAKNTVYLQMNSLKPEDTAVYYCNADGEGADSDYDYWGQGTQVTVSS	low polyreactivity
QVQLVESGGGLVQAGGSLRLSCAASGFTFDDYTMGWYRHAPGKERELVAAITSSGDSTYYADSVKGRFTISRDNAKNTVYLQMNSLKPEDTAVYYCAAQSYPFDRDYWGQGTQVTVSS	high polyreactivity
QVQLVESGGGLVQAGGSLRLSCAASGFTFDGYAMGWYRQAPGKERELVAAISDSGDSTYYADSVKGRFTISRDNAKNTVYLQMNSLKPEDTAVYYCAAGLGYYWSDYFAYDYWGQGTQVTVSS	low polyreactivity
QVQLVESGGGLVQAGGSLRLSCAASGFTFDHNDMGWYRQAPGKEMELVAAITWSAGSTYYADSVKGRFTISRDNAKNTVYLEMNSLKPEDTAVYYCAADAWYYSIYRGGDYWGQGTQVTVSS	low polyreactivity
QVQLVESGGGLVQAGGSLRLSCAASGFTFDKNVMGWYRQAPGKERELVAAISVRGGTTYYADSVKGRFTISRDNAKNTVYLQMNSLKPEDTAVYYCAARAYGPPARYDSWGQGTQVTVSS	low polyreactivity
QVQLVESGGGLVQAGGSLRLSCAASGFTFDKYAMGWYRQAPGKERELVAAITQNGGSTNYADSVKGRFTISRDNAKNTVYLQMNSLKPEDTAVYYCATRSSYLSYVSRMYYWGQGTQVTVSS	high polyreactivity
QVQLVESGGGLVQAGGSLRLSCAASGFTFDPYAMGWYRQAPGKERELVAAISFSGGSTSYADSVKGRFTISRDNAKNTVYLHMNSLKLEDTAVYYCNAEYDWWSYWYDYWGQGTQVTVSS	high polyreactivity
QVQLVESGGGLVQAGGSLRLSCAASGFTFDQYAMGRNRQAPGKERELVAVISSGGSTYYADSVKGRFTFSRDNAKNTVYLQMNSLKQEDTAVYYCNRDRQRRYDYWGQGTQVTLSS	high polyreactivity
